In paper PMC7617285, “Dehydrogenase versus oxidase function: the interplay between substrate binding and flavin microenvironment” (ACS catalysis, 2025):
Where a chain is given by its changes, count along the chain named. Names may count otherwise.

What was measured:
Experiment in all cases: purified protein
purified protein [1] = substrate: COc1cc(CO)ccc1O; type: biochemical, Rhodococcus jostii; conditions: molecular oxygen as acceptor, 25 °C, 50 mM potassium phosphate pH 7.5, 150 mM NaCl
purified protein [2] = substrate: COc1cc(CO)ccc1O; type: biochemical, Hyphococcus luteus; conditions: 100 μM DCPIP as acceptor, 25 °C, 50 mM potassium phosphate pH 7.5, 150 mM NaCl
purified protein [3] = substrate: OCc1ccc(O)cc1; type: biochemical, Hyphococcus luteus; conditions: 100 μM DCPIP as acceptor, 25 °C, 50 mM potassium phosphate pH 7.5, 150 mM NaCl
purified protein [4] = substrate: C=CCc1ccc(O)c(OC)c1; type: biochemical, Hyphococcus luteus; conditions: 100 μM DCPIP as acceptor, 25 °C, 50 mM potassium phosphate pH 7.5, 150 mM NaCl
purified protein [5] = substrate: COCc1ccc(O)cc1; type: biochemical, Hyphococcus luteus; conditions: 100 μM DCPIP as acceptor, 25 °C, 50 mM potassium phosphate pH 7.5, 150 mM NaCl

B1: EUGO (eugenol oxidase from Rhodococcus jostii RHA1) (Rhodococcus jostii RHA1) (protein)
chain: MTRTLPPGVSDERFDAALQRFRDVVGDKWVLSTADELEAFRDPYPVGAAEANLPSAVVSPESTEQVQDIVRIANEYGIPLSPVSTGKNNGYGGAAPRLSGSVIVKTGERMNRILEVNEKYGYALLEPGVTYFDLYEYLQSHDSGLMLDCPDLGWGSVVGNTLDRGVGYTPYGDHFMWQTGLEVVLPQGEVMRTGMGALPGSDAWQLFPYGFGPFPDGMFTQSNLGIVTKMGIALMQRPPASQSFLITFDKEEDLEQIVDIMLPLRINMAPLQNVPVLRNIFMDAAAVSKRTEWFDGDGPMPAEAIERMKKDLDLGFWNFYGTLYGPPPLIEMYYGMIKEAFGKIPGARFFTHEERDDRGGHVLQDRHKINNGIPSLDELQLLDWVPNGGHIGFSPVSAPDGREAMKQFEMVRNRANEYNKDYAAQFIIGLREMHHVCLFIYDTAIPEAREEILQMTKVLVREAAEAGYGEYRTHNALMDDVMATFNWGDGALLKFHEKIKDALDPNGIIAPGKSGIWSQRFRGQNL
notes: covalent FAD on H390
Km (purified protein [1]): 204.4 ± 28.9 µM
kcat (purified protein [1]): 9.68 ± 0.43 s⁻¹
kcat/Km (purified protein [1]): 47400 M⁻¹ s⁻¹

B2: VAD (vanillyl-alcohol dehydrogenase from Marinicaulis flavus) (Hyphococcus luteus; P151I) (protein)
chain: MAAPLPEGVSAEAMSSALDRFARIVGADWVFTEDKITPYEDPYTISNDETEHRPYAAVAPASTEEVQEIVRVANEFGVPLWPVSRGKNFAYGGAAPVMSGTVVLDMNRMNRILEVNEEFGYALVEPGVSYFELYDYIQEKGLKLWIDVPDIGWGSVVGNALDHGIGYTPYGDHFAMQCGMEVVLPNGEVVRTGMGAMPGNNTWQLFKYGYGPYVDGIFSQSNFGVVTKMGIWLMPEPAGYRPYLITFENEDDIETVTERLRPLKVAGVIQNGATVRSLVLDAAITRTKSQYYDGDGPIPPSVAKTMMADLDLGMWNFCGALYGPPPVMDTLWTAIRDSFADIPGVKFYFPEDRRHKVDLLLHRAETMKGVPKLTEFNFLNWDGGGGHVGFSPVSPITGKDAIKQYNMVSSRVREYGFDYMGLLAIGWRDLHHVTVIVYDKTDPDERKKLDELFNILVDEAAAEGYGEYRTHIRYMDRIAKTYSWNDNALWKMHETIKDALDPNGILAPGKSGIWGKNRRKA
notes: SUMO tag cleaved for crystals; covalent FAD on H387; dimer
Km (purified protein [2]): 37.5 ± 9.2 µM
kcat (purified protein [2]): 0.73 ± 0.04 s⁻¹
kcat/Km (purified protein [2]): 19000 M⁻¹ s⁻¹

B3: VAD (vanillyl-alcohol dehydrogenase from Marinicaulis flavus) (Hyphococcus luteus; P151G) (protein)
chain: B2 chain with I151G
notes: as for B2
Km (purified protein [2]): 316.5 ± 39.7 µM
kcat (purified protein [2]): 1.49 ± 0.07 s⁻¹
kcat/Km (purified protein [2]): 5000 M⁻¹ s⁻¹

B4: VAD (vanillyl-alcohol dehydrogenase from Marinicaulis flavus) (Hyphococcus luteus; P151V) (protein)
chain: B2 chain with I151V
notes: as for B2
Km (purified protein [2]): 42.2 ± 6.6 µM
kcat (purified protein [2]): 0.90 ± 0.04 s⁻¹
kcat/Km (purified protein [2]): 21000 M⁻¹ s⁻¹

B5: VAD (vanillyl-alcohol dehydrogenase from Marinicaulis flavus) (Hyphococcus luteus; P151T) (protein)
chain: B2 chain with I151T
notes: as for B2
Km (purified protein [2]): 17.6 ± 5.5 µM
kcat (purified protein [2]): 0.48 ± 0.03 s⁻¹
kcat/Km (purified protein [2]): 27000 M⁻¹ s⁻¹

B6: VAD (vanillyl-alcohol dehydrogenase from Marinicaulis flavus) (Hyphococcus luteus) (protein)
chain: B2 chain with I151P
notes: as for B2
Km (purified protein [2]): 74.2 ± 12.4 µM
kcat (purified protein [2]): 0.44 ± 0.02 s⁻¹
kcat/Km (purified protein [2]): 6000 M⁻¹ s⁻¹
Km (purified protein [3]): 208 ± 9 µM
kcat (purified protein [3]): 0.25 ± 0.01 s⁻¹
kcat/Km (purified protein [3]): 1200 M⁻¹ s⁻¹
Km (purified protein [4]): 51.2 ± 13.1 µM
kcat (purified protein [4]): 0.81 ± 0.06 s⁻¹
kcat/Km (purified protein [4]): 16000 M⁻¹ s⁻¹
Km (purified protein [5]): 330 ± 40 µM
kcat (purified protein [5]): 0.06 ± 0.003 s⁻¹
kcat/Km (purified protein [5]): 200 M⁻¹ s⁻¹

B7: VAD (vanillyl-alcohol dehydrogenase from Marinicaulis flavus) (Hyphococcus luteus; P151N) (protein)
chain: B2 chain with I151N
notes: as for B2
Km (purified protein [2]): 151 ± 24 µM
kcat (purified protein [2]): 0.14 ± 0.07 s⁻¹
kcat/Km (purified protein [2]): 1000 M⁻¹ s⁻¹

B8: VAD (vanillyl-alcohol dehydrogenase from Marinicaulis flavus) (Hyphococcus luteus; P151L) (protein)
chain: B2 chain with I151L
notes: as for B2
Km (purified protein [2]): 72.4 ± 6.3 µM
kcat (purified protein [2]): 0.76 ± 0.02 s⁻¹
kcat/Km (purified protein [2]): 10500 M⁻¹ s⁻¹
